Experiments:
TNFR1 = test: MST, fluorescently labelled TNFR1, TNF-α titrated, without SN10
TNFR2 [1] = test: MST, fluorescently labelled TNFR2, TNF-α titrated, without SN10
TNFR2 [2] = test: MST competition, fluorescently labelled TNFR2, TNF-α titrated in the presence of 100 µM SN10
TNF-α = test: MST, fluorescently labelled TNF-α, TNFR1 titrated, without SN10

Row | Substance | Kd (TNFR1) | Kd (TNFR2 [1]) | KD in the presence of 100µM SN10 (TNFR2 [2]) | Kd (TNF-α)
1 | TNF-α (ligand) | 116 nM | 328 nM | 384 nM | –
2 | TNFR1 (receptor) | – | – | – | 2.84 nM
